Measured values published in patent US20140107039A1 (ROCKEFELLER UNIVERSITY, published 2014).

Target: Polycomb Repressive Complex 2 (PRC2), purified through FLAG-tagged human EED from HeLa or HEK293T nuclear … (human, UniProt O75530 1-441; Q15910 1-746)
Test: cell-based or functional assay

Polycomb Repressive Complex 2 (PRC2), purified through FLAG-tagged human EED from HeLa or HEK293T nuclear …, sequence (O75530 whole entry, chain 1 of 2): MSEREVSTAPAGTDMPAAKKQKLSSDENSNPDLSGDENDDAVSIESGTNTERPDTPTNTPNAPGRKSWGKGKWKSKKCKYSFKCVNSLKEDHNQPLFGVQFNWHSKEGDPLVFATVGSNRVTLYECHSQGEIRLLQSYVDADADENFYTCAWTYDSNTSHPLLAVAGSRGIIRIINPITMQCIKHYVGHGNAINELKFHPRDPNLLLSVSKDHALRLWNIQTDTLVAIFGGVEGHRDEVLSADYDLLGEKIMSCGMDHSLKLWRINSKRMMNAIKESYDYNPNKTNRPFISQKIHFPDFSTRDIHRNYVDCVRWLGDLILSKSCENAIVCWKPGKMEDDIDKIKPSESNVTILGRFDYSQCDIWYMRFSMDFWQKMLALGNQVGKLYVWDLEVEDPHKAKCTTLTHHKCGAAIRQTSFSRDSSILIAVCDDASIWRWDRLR
Polycomb Repressive Complex 2 (PRC2), purified through FLAG-tagged human EED from HeLa or HEK293T nuclear …, sequence (Q15910 whole entry, chain 2 of 2): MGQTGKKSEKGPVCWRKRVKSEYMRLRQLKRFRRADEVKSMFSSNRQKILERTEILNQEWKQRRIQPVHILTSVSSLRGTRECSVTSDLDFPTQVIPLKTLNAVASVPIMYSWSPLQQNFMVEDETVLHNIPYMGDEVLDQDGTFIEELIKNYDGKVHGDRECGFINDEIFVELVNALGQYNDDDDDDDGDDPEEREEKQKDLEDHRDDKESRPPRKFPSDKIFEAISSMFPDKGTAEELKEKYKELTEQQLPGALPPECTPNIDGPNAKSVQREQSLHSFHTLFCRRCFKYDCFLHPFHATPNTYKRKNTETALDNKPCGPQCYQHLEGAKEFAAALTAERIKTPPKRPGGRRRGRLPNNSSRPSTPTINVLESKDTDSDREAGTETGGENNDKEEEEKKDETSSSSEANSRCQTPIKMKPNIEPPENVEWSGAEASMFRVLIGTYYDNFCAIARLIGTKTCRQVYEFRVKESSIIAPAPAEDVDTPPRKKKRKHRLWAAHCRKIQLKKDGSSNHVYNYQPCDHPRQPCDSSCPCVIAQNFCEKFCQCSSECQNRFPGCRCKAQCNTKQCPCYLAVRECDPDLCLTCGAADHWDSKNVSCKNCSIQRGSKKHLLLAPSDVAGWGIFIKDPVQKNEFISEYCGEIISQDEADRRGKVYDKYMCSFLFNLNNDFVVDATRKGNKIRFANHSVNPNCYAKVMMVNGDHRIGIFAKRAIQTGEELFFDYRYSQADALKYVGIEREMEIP

IC50, in vitro PRC2 methylation reactions: 8.9 µM
Binder: KQLATKAARISAPSTGGVKK [H3 peptide (18-37) with Lys27 replaced by Ile]
